Source: patent WO2010064089A1 (dated 2010)

These binders were tested against human c-Met receptor on tumor cells (A549, NCI-H441, BxPC3) (human, UniProt P08581 25-1390) (assay: cell-based or functional assay).

| inhibition of HGF-induced proliferation of NCI-H441 cells (Figure 14A) | inhibition of HGF-induced proliferation of NCI-H441 cells (Figure 15) | inhibition of HGF-induced proliferation of NCI-H441 cells (Figure 14B) | Binder |
| --- | --- | --- | --- |
| ~46% | – | – | [224G11][Hz1] (antibody, V domains shown) VH: QVQLVQSGAEVKKPGASVKVSCKASGYIFTAYTMHWVRQAPGQGLEWMGWIKPNNGLANYAQKFQGRVTMTRDTSISTAYMELSRLRSDDTAVYYCARSEITTEFDYWGQGTLVTVSS VL: DIVLTQSPDSLAVSLGERATINCKSSESVDSYANSFMHWYQQKPGQPPKLLIYRASTRESGVPDRFSGSGSRTDFTLTISSLQAEDVAVYYCQQSKEDPLTFGGGTKVEIKR |
| ~30% | – | – | [224G11][Hz2] (antibody, V domains shown) VH: QVQLVQSGAEVKKPGASVKVSCKASGYIFTAYTMHWVRQAPGQGLEWMGWIKPNNGLANYAQKFQGRVTMTRDTSISTAYMELSRLRSDDTAVYYCARSEITTEFDYWGQGTLVTVSS VL: DIVMTQSPDSLAVSLGERATINCKSSESVDSYANSFMHWYQQKPGQPPKLLIYRASTRESGVPDRFSGSGSGTDFTLTISSLQAEDVAVYYCQQSKEDPLTFGGGTKVEIKR |
| – | 67% | – | [224G11][TH7 Hz1] (antibody, V domains shown) VH: QVQLVQSGAEVKKPGASVKVSCKASGYIFTAYTMHWVRQAPGQGLEWMGWIKPNNGLANYAQKFQGRVTMTRDTSISTAYMELSRLRSDDTAVYYCARSEITTEFDYWGQGTLVTVSS VL: DIVLTQSPDSLAVSLGERATINCKSSESVDSYANSFMHWYQQKPGQPPKLLIYRASTRESGVPDRFSGSGSRTDFTLTISSLQAEDVAVYYCQQSKEDPLTFGGGTKVEIKR |
| – | 76% | – | [224G11][TH7 Hz3] (antibody, V domains shown) VH: QVQLVQSGAEVKKPGASVKVSCKASGYIFTAYTMHWVRQAPGQGLEWMGWIKPNNGLANYAQKFQGRVTMTRDTSISTAYMELSRLRSDDTAVYYCARSEITTEFDYWGQGTLVTVSS VL: DIVMTQSPDSLAVSLGERATINCKSSESVDSYANSFLHWYQQKPGQPPKLLIYRASTRESGVPDRFSGSGSGTDFTLTISSLQAEDVAVYYCQQSKEDPLTFGGGTKVEIKR |
| ~35% | – | – | [224G11][Hz3] (antibody, V domains shown) VH: QVQLVQSGAEVKKPGASVKVSCKASGYIFTAYTMHWVRQAPGQGLEWMGWIKPNNGLANYAQKFQGRVTMTRDTSISTAYMELSRLRSDDTAVYYCARSEITTEFDYWGQGTLVTVSS VL: DIVMTQSPDSLAVSLGERATINCKSSESVDSYANSFLHWYQQKPGQPPKLLIYRASTRESGVPDRFSGSGSGTDFTLTISSLQAEDVAVYYCQQSKEDPLTFGGGTKVEIKR |
| 66% | 74% | 57% | murine 224G11 Mab (antibody, mouse IgG1, V domains shown) VH: EVQLQQSGPELVKPGASVKISCKTSGYIFTAYTMHWVRQSLGESLDWIGGIKPNNGLANYNQKFKGKATLTVDKSSSTAYMDLRSLTSEDSAVYYCARSEITTEFDYWGQGTALTVSS VL: DIVLTQSPASLAVSLGQRATISCRASESVDSYANSFMHWYQQKPGQPPKLLIYRASNLESGIPARFSGSGSRTDFTLTINPVEADDVATYYCQQSKEDPLTFGSGTKLEMKR |
| – | – | 79% | [224G11][MH chim] (antibody, human IgG1, V domains shown) VH: EVQLQQSGPELVKPGASVKISCKTSGYIFTAYTMHWVRQSLGESLDWIGGIKPNNGLANYNQKFKGKATLTVDKSSSTAYMDLRSLTSEDSAVYYCARSEITTEFDYWGQGTALTVSS VL: DIVLTQSPASLAVSLGQRATISCRASESVDSYANSFMHWYQQKPGQPPKLLIYRASNLESGIPARFSGSGSRTDFTLTINPVEADDVATYYCQQSKEDPLTFGSGTKLEMKR |
| – | – | 84% | [224G11][MMCH chim] (antibody, human IgG1, V domains shown) VH: EVQLQQSGPELVKPGASVKISCKTSGYIFTAYTMHWVRQSLGESLDWIGGIKPNNGLANYNQKFKGKATLTVDKSSSTAYMDLRSLTSEDSAVYYCARSEITTEFDYWGQGTALTVSS VL: DIVLTQSPASLAVSLGQRATISCRASESVDSYANSFMHWYQQKPGQPPKLLIYRASNLESGIPARFSGSGSRTDFTLTINPVEADDVATYYCQQSKEDPLTFGSGTKLEMKR |
| – | – | 78% | [224G11][MUP9H chim] (antibody, human IgG1, V domains shown) VH: EVQLQQSGPELVKPGASVKISCKTSGYIFTAYTMHWVRQSLGESLDWIGGIKPNNGLANYNQKFKGKATLTVDKSSSTAYMDLRSLTSEDSAVYYCARSEITTEFDYWGQGTALTVSS VL: DIVLTQSPASLAVSLGQRATISCRASESVDSYANSFMHWYQQKPGQPPKLLIYRASNLESGIPARFSGSGSRTDFTLTINPVEADDVATYYCQQSKEDPLTFGSGTKLEMKR |
| 19% | 33% | – | [224G11]chim (antibody, human IgG1, V domains shown) VH: EVQLQQSGPELVKPGASVKISCKTSGYIFTAYTMHWVRQSLGESLDWIGGIKPNNGLANYNQKFKGKATLTVDKSSSTAYMDLRSLTSEDSAVYYCARSEITTEFDYWGQGTALTVSS VL: DIVLTQSPASLAVSLGQRATISCRASESVDSYANSFMHWYQQKPGQPPKLLIYRASNLESGIPARFSGSGSRTDFTLTINPVEADDVATYYCQQSKEDPLTFGSGTKLEMKR |
| – | 81% | 93% | [224G11][TH7 chim] (antibody) heavy: not shown light: DIVLTQSPASLAVSLGQRATISCRASESVDSYANSFMHWYQQKPGQPPKLLIYRASNLESGIPARFSGSGSRTDFTLTINPVEADDVATYYCQQSKEDPLTFGSGTKLEMKRTVAAPSVFIFPPSDEQLKSGTASVVCLLNNFYPREAKVQWKVDNALQSGNSQESVTEQDSKDSTYSLSSTLTLSKADYEKHKVYACEVTHQGLSSPVTKSFNRGEC |
